# Laboratory results as given in the nanobody polyreactivity screen of Harvey et al. (2022).
# Assay: yeast display, Sf9 membrane polyspecificity reagent, FACS + sequencing; frameworks hold sequencing errors
# In short: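 Nanobodies from a synthetic yeast display library (Saccharomyces cerevisiae BJ5465), induced 36–48 hours with galactose, were stained 1 hour at 4 °C with 10% biotinylated, detergent-solubilized Sf9 membrane reagent, enriched on streptavidin microbeads, then FACS-sorted. Anti-HA (expression) and streptavidin (reagent binding) fluorescence set low and high (top ~1%) gates. Polyreactivity labels come from the gate of origin. Genes were colony-PCR amplified, MiSeq 2 × 250 sequenced and filtered by CDR length.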
row,Sequence,polyreactivity (PSR sort gate)
1,QVQLVESGGGLVQAGGSLRLTCAASGSTFYYNAMGWYRQAPAKERELVADISWRGGITYYADSVKGRFTISRDNAKNTVYLQMNSLKPEDTAVYYFKADAESFDDGYWGQGTQVTVSS,low polyreactivity
2,QVQLVESGGGLGQAGGSLRLSCAASGITFVVYAMGWYRQAPGKERELVATISSGGSTNYADSVKGRFTISRDNAKNTVYLQMNSLKPEDTAVYYCNRVSVYRSSHLLWGGYWGQGTQVTVSS,low polyreactivity
3,QVQLVESGGGLVQAGGSLRLSCAASGSTFLVYAMGWYRQAPGKERELVAVIDNGGDTYYADSVKGRFTISRDNAKNTVYLQMNSLKPEDTEVYYCAADLSYLGYWEYDYWGQGTQVTVSS,low polyreactivity
4,QVQLVESGGGLVQSGGSLRLSCDASGRIFSRYAMGWYIQAPGKEREFVAAISRSGTSTYYADSVKVRFTISRDNAKNTVYLQMNSLKPEDTAVYYCAADYPAVISIRRYDYWGQGTQVTVSS,low polyreactivity
5,QVQLVESGGGLFQAGGSLRLSCAASGSTFYIYAMGWYRQAPGKEREFFAAIDFSGSSTYADSEKGRFTISRDNAKNTVYVQMNSLKPEDTAVYYCAAYQIYQYDGPYDYWGQGTQVTVSS,low polyreactivity
6,QVQLVESGGGLVQAGGSLRLSSAASGSTFFSYAMGWYRQAPGKERELVAAISWIDDGTYYADSVKGRFTISRDNAKNTVYLQMNSLKPEDTAVYYCAADIGAYRTWDYEYWGQGTQVTVSS,low polyreactivity
7,QVQLVESGGGLVQSGGSLRLSCAASGITFARYTMGWYRQAPGKVRELVAAISYAGNTYYADSVKGRFTISRDNAKNTVYLQMNSLKPEDTAVYYCAREYTYYPRWVGYDAYGEDYWGQGTQVTVSS,low polyreactivity
8,QVQLVESGGGLVQAGGSLRLSCAASGRTFSSNAMGWYRQAPGKERELVASISFRGGRTYYADSVKGRFTISRDNAKNTVYLQMYSLKPEDTAVYYCVSGTKRTGYGYWGQGTQVTVSS,high polyreactivity
9,QVQLVESGGGLVQAGGSLRLSCAASGSIFSSNAMGWYRPAPGKERELVAAISWNGGRTYYADSVKGRFTISRDNAKNTVYLQMNSLKPEDTAVYYCATRFYRPRDGLYDYWGQGTQVTVSS,high polyreactivity
10,QLQLVESGGGLVQAGGSLRLSCAASGSISAVNTMGWYRQAPRKERELVATISYSTASTYYADSVKGRFTISRDNAKITVYLQINSRKPEDTAFYYCNKDGRRYAYNSEYDHWGQGTQVTVSS,low polyreactivity
11,QVQLVESGGGLVQAGGSLRLSCAASGSIFASYAMGWYRQAPGKERELVAAITYSGSRTYYADSVKGRFTISRDTAKNTVYLQMNSLKPEDTAVYYCNADYYWYPYEDDYWGQGTQETVSS,low polyreactivity
12,QVQLVESWGGLVQAGGSLRLSCAASGSTIIGYDMGWYRQAPGKVRELVAAISYSDGTYYADSVKGRFTISRDNAKNTFYLPMNSLKPEDTAVYYCAADSLYYRYDYWGQGTQVTVSW,low polyreactivity
13,QVQLVESGGGLVQAGGSLRLSCAASGSTFVYYAMGWYRQAPGKERELVAAISYSGGRTYYADSVKGRFTISRDNAKNTVYLQMNSLKQEDTAVYYCAAAYVKFYGYSAEYDYWGQGTQVTVSS,low polyreactivity
14,QVQLVESGGGLVQAGGSLRLICAATGLIFPLYDMGWYRQAAGKERELVAAITLGGGGTYYADSVKGRFTISRDNAKNTVYLQMNSLKPEDTAVYYCNADYDIAAQLRTYITFDYWGQGTQVTVSS,low polyreactivity
15,QVQLEESGRGLVQAGGSLRLSCAASGSTLNYNTMGWYRQAPGKVRELVATISSRGGRTDYADSVKGRFTFSRDNAKNNVYLQMNSLIPEYTAVYSCNALPRVVYTVGQSTFYYWGQGTQVTVSS,high polyreactivity
16,QVQLVESGGGLVQAGGSLRLSCAASGNIFVPNAMGWYRQAPGKERELVAAIRRGGSTNYADSVKGRFTISRDNAKNTVYLQMNSLKPEDTAVYYCAAYYTYLYHYGTFKIYNYWGQGTQVTVSS,low polyreactivity
17,QVQLVESGGGLVQAGGSLRLSCAASGSIFYRYAMGWYRQAPGKERELVAAISSRGGSTNYADSVKGRFTISRDNAKNTVYLQMNSLKPEDTAVYYCAAGWNYLRQFNFNYWGQGTQVTVSS,high polyreactivity
18,QVQHVESGGGLVQAGGSLRLSCAASGSTFDRYAMGWNRQAPGKERELVAAISGGGGSTYYADSVKGRFTISRDNAKNTVYLQMNSLKPEDTAVYYCAKLLARGNRYDSWGQGTQLTVSS,high polyreactivity
19,QVQLVESGGGLVQAGGSLRLSCAASGRTFGENAMGWYRQAPGKERELVAAITGGDSTNYADSVKGRFTISRDNAKNTVYLQMNSLKPEDTAVYYCAAYGVKVLWTLTTYDYWGQGTQVTVSS,low polyreactivity
20,QVQLVESGGGLVQAGGSLRLSCAASGRTFEHYAMGWYRQAPGKERELVAAITWSGVSTYYADSVKGRFTISRDNAKNTVYVQMNSLKPEDTAVYYCAANWLGYGFDYWGQGTQVTVSS,low polyreactivity
21,QVHLVESGGGLVQAGGSLRLSCAASGFTFSTYTMGWYRQSPGKERELVAAIRRSGDSTYYADSVKGRFTISRDNAKNTVYLQMNSLKPVDTAVYYCNAVLYRFERFDYWGQGTQVTVSS,high polyreactivity

row,Sequence,polyreactivity (PSR sort gate)
1,QVQLVESGGGLVQAGGSLRLSCAASGGTITPYAMGWYRQAPGKERELVAAISRSGARTYYADSVKGRFTISRDNAKNTVYLQMNSLKPEDTAVYYCAKTFSGYRFDYWGQGTQVTVSS,high polyreactivity
2,QVQLVESGGGLVQAGGRLRLSCAASGSISASYAMGWSRQAPGKERELVAAITSGGSTYYADSVKGRFTFSRDNAKNTVYFQMNSLKPEETAVYYCAKRPKRTYYPHIGYDYWGQGTQVTVSS,low polyreactivity
3,QVQLVETGGGLVQAGGSLRLSCAASGSIFGDNAMGWYRQAPGKERELVAAIDQSGDSTYYADSVKGRFTISRDNAKNTVYLQMNSLKPEDTAVYYCAAQSYDYWYDYDYWGQGTQVTVSS,high polyreactivity
4,QVQLVETGGGLVQAGGSLRLSCAASGFIFYDYAMGWYRQSPGKERELVASISWSSGSTYYADSVKGRFTISRDNAKNTVYLQMNSLKPEDTAVYYCAADGYPLQLYNYWGQGTQVSVSS,low polyreactivity
5,QVQLVESGGGLVQAGGSLRLSCAASGSSFSRNAMGWYRQAPGKESELVAAISWSGGRTYYAASVKGRFTISRDNAKNTVYLQMNSLKPEDTAVYYCAKGYSYHWYHVTYYSLGQGTQVTVSS,high polyreactivity
6,QVQLVESGGRLVQAGGSLRLSCAASGSIFPGNAMGWYRQAPGKDREYVGAISWSGGSTNYADSVKGRFTISRDNAKYTVYLQMNSLKPEDTAVYYCAKRFVRLDPTTQLYGKAYEYWGQGTQVTVSS,high polyreactivity
7,QVQLVESGGGLVQAGGSLRLSSAASGFIFSYNAMRWYRQARGKERELVAAITYSDGGTYADSVKARFTISRDNAKNTVDLQMHSLKPEDTAVYYCARRQVLYSRDFEYDYWGQGTLVTVSS,low polyreactivity
8,QVQLVESGGGLVQAGGSLRLSCAASGFTFNNYAMGWYRQAPGKERELVAAISSGAGTYYADSVKGRFTISRDNAKNTVYLQMNSLKPEDTAVYYCNASLKYQGRTRITYRDDYWGQGTQVTVSS,low polyreactivity
9,QVQLVESGGGLVQAGGSLRLSCADSGSTFWPYAMGWYRQAPGKESEVVAAISSSGGSTYYADSVQGRFTISRDNAKNTVYLQMNSLKPEDTAVYYCNKDYHRPFGGGSKGDYWGQRTQVTVSS,low polyreactivity
10,QVQLVESGGGLVQAGGSLRLSCAASGSIFQSYDMGWYRQAPGKERELVAAIRSGDSTYYADSVKGRFTISRDNAKNTVYLQMNSLKPEDTAVYYCNARYGNESQGWEDYWGQGTQVTVSS,low polyreactivity
11,QVQLVESGGGLVQAGGSLRLSCAASGSIFNTYAMGWYRQAPGKEREFVASITYRGSNTYYADSVKGRFTISRDNAKNTVYLQMNSLKPEDTAVYDCAADSFDYRPEYDYWGQGTQVTVSS,low polyreactivity
12,QLQLVESGGGLVQAGGSLRLSCAASGSTFVYNAMGWYRQAPGKERELVAAISTGGSTYYADSVKGRFTISRDNAKNTVYLQMNSLKPEDTAVYYCAAGYSWGYSSQKLRYGYWGQGTQVTVSS,high polyreactivity
13,QVQLVETGGGLVQAGGSLRLSSAASGSTFTYNVMGWYRQAPGKERELVAAISRIAGRTYYADSVKGRFTISRDTAKNTVYLQMNSLKPEDTAVYYCAALALKWRYDFWGQGTQVTVSS,high polyreactivity
14,QVQLVESGGGLVQAGGSLRLSCAASGSHFSSYVMGGYRQGPGKERELVAAISSIGGSTYYADSVKGRFTISRDNAKNTVYLQMNSLKPEDTAVYYCAAEPPGSTYEGGYWGQGTQVTVSS,low polyreactivity
15,QVQLVESGGGLVQAGGSLRLSCAASGIIFGRYAMGWYRQAPGKERELVAAISTSGGSTYYADSVKGRFTISRDNAKNTVYLQMNSLKPEDTAVYYCAARHREAQRRYDYWGQGTQVTVSS,high polyreactivity
16,QVQLVESGGGLVQAGGSLRLSCAASGSTFSRNVMGWYRQAPGKERELVAAISRGGSTNYADSVKGRFTISRENAKNTVYLQMNSLKPEDTAVYYCNAPRLGKFYYWGQGTQVTVSS,low polyreactivity
17,QVQLVESGGGLVQAGGSLRLSCAPSGGTFLSNVMVWYRQAPGKERELVAAISSRGGSTYFADSVKGRFTISRDNAKNNVYFQMNSLKPVDTAVYYCNVRAAHYKDRQYDYWGQGTQGTVSS,high polyreactivity
18,QVQLVESGGGLVQAGGSLRLSCAASGFIFHIYAMGWYRQAPGKERELVAVITSGGSTYYADSVKGRFTISRDNAKNTVYLQMNSLKPEDTAVYYCAARYRRSWLEYDYWGQGTQVTVSS,high polyreactivity
19,QVHQQESGGGLMQAGGSQRLSCAASGSISYYSDMGRYRQAPGKEREFVAGIGYGTTTNYADSVKGRFTTSRDNAKNTVYLQMISMKPEDNAVYYCAAYQGNGYEFYYWGQGTQVTVRS,low polyreactivity
20,QVQLVESGACLVKAGGSLRLSCAASGSSFYGYAMGWYRQAPGKERELVASITVSVGSTNADSVKGRFTISRDNAKNTVYLQMISLKPEDTAVYYCAAETVHSREQREGDYWGQGTQVSVSS,low polyreactivity
